These results are taken from publication PMC7367873, “Dissecting the sequence determinants for dephosphorylation by the catalytic subunits of phosphatases PP1 and PP2A” (Nature Communications, 2020).

The labels stand for the following.
B1: HSPD1 (protein, UniProt P10809 27-573, looked up)
60 kDa heat shock protein, …: AKDVKFGADARALMLQGVDLLADAVAVTMGPKGRTVIIEQSWGSPKVTKDGVTVAKSIDLKDKYKNIGAKLVQDVANNTNEEAGDGTTTATVLARSIAKEGFEKISKGANPVEIRRGVMLAVDAVIAELKKQSKPVTTPEEIAQVATISANGDKEIGNIISDAMKKVGRKGVITVKDGKTLNDELEIIEGMKFDRGYISPYFINTSKGQKCEFQDAYVLLSEKKISSIQSIVPALEIANAHRKPLVIIAEDVDGEALSTLVLNRLKVGLQVVAVKAPGFGDNRKNQLKDMAIATGGAVFGEEGLTLNLEDVQPHDLGKVGEVIVTKDDAMLLKGKGDKAQIEKRIQEIIEQLDVTTSEYEKEKLNERLAKLSDGVAVLKVGGTSDVEVNEKKDRVTDALNATRAAVEEGIVLGGGCALLRCIPALDSLTPANEDQKIGIEIIKRTLKIPAMTIAKNAGVEGSLIVEKIMQSSSEVGYDAMAGDFVNMVEKGIIDPTKVVRTALLDAAGVASLLTTAEVVVTEIPKEEKDPGMGAMGGMGGGMGGGMF
B2: CDC42EP1 (protein, UniProt Q00587 1-391, looked up)
Cdc42 effector protein 1: MPGPQGGRGAATMSLGKLSPVGWVSSSQGKRRLTADMISHPLGDFRHTMHVGRGGDVFGDTSFLSNHGGSSGSTHRSPRSFLAKKLQLVRRVGAPPRRMASPPAPSPAPPAISPIIKNAISLPQLNQAAYDSLVVGKLSFDSSPTSSTDGHSSYGLDSGFCTISRLPRSEKPHDRDRDGSFPSEPGLRRSDSLLSFRLDLDLGPSLLSELLGVMSLPEAPAAETPAPAANPPAPTANPTGPAANPPATTANPPAPAANPSAPAATPTGPAANPPAPAASSTPHGHCPNGVTAGLGPVAEVKSSPVGGGPRGPAGPALGRHWGAGWDGGHHYPEMDARQERVEVLPQARASWESLDEEWRAPQAGSRTPVPSTVQANTFEFADAEEDDEVKV
B3: UTP18 (protein, UniProt Q9Y5J1 1-556, looked up)
U3 small nucleolar …: MPPERRRRMKLDRRTGAKPKRKPGMRPDWKAGAGPGGPPQKPAPSSQRKPPARPSAAAAAIAVAAAEEERRLRQRNRLRLEEDKPAVERCLEELVFGDVENDEDALLRRLRGPRVQEHEDSGDSEVENEAKGNFPPQKKPVWVDEEDEDEEMVDMMNNRFRKDMMKNASESKLSKDNLKKRLKEEFQHAMGGVPAWAETTKRKTSSDDESEEDEDDLLQRTGNFISTSTSLPRGILKMKNCQHANAERPTVARISSVQFHPGAQIVMVAGLDNAVSLFQVDGKTNPKIQSIYLERFPIFKACFSANGEEVLATSTHSKVLYVYDMLAGKLIPVHQVRGLKEKIVRSFEVSPDGSFLLINGIAGYLHLLAMKTKELIGSMKINGRVAASTFSSDSKKVYASSGDGEVYVWDVNSRKCLNRFVDEGSLYGLSIATSRNGQYVACGSNCGVVNIYNQDSCLQETNPKPIKAIMNLVTGVTSLTFNPTTEILAIASEKMKEAVRLVHLPSCTVFSNFPVIKNKNISHVHTMDFSPRSGYFALGNEKGKALMYRLHHYSDF
B4: NOLC1 (protein, UniProt Q14978 1-699, looked up)
Nucleolar and coiled-body …: MADAGIRRVVPSDLYPLVLGFLRDNQLSEVANKFAKATGATQQDANASSLLDIYSFWLKSAKVPERKLQANGPVAKKAKKKASSSDSEDSSEEEEEVQGPPAKKAAVPAKRVGLPPGKAAAKASESSSSEESSDDDDEEDQKKQPVQKGVKPQAKAAKAPPKKAKSSDSDSDSSSEDEPPKNQKPKITPVTVKAQTKAPPKPARAAPKIANGKAASSSSSSSSSSSSDDSEEEKAAATPKKTVPKKQVVAKAPVKAATTPTRKSSSSEDSSSDEEEEQKKPMKNKPGPYSSVPPPSAPPPKKSLGTQPPKKAVEKQQPVESSEDSSDESDSSSEEEKKPPTKAVVSKATTKPPPAKKAAESSSDSSDSDSSEDDEAPSKPAGTTKNSSNKPAVTTKSPAVKPAAAPKQPVGGGQKLLTRKADSSSSEEESSSSEEEKTKKMVATTKPKATAKAALSLPAKQAPQGSRDSSSDSDSSSSEEEEEKTSKSAVKKKPQKVAGGAAPSKPASAKKGKAESSNSSSSDDSSEEEEEKLKGKGSPRPQAPKANGTSALTAQNGKAAKNSEEEEEEKKKAAVVVSKSGSLKKRKQNEAAKEAETPQAKKIKLQTPNTFPKRKKGEKRASSPFRRVREEEIEVDSRVADNSFDAKRGAAGDWGERANQVLKFTKGKSFRHEKTKKKRGSYRGGSISVQVNSIKFDSE
B5: YWHAH (protein, UniProt Q04917 2-246, looked up)
14-3-3 protein eta: GDREQLLQRARLAEQAERYDDMASAMKAVTELNEPLSNEDRNLLSVAYKNVVGARRSSWRVISSIEQKTMADGNEKKLEKVKAYREKIEKELETVCNDVLSLLDKFLIKNCNDFQYESKVFYLKMKGDYYRYLAEVASGEKKNSVVEASEAAYKEAFEISKEQMQPTHPIRLGLALNFSVFYYEIQNAPEQACLLAKQAFDDAIAELDTLNEDSYKDSTLIMQLLRDNLTLWTSDQQDEEAGEGN
B6: NOP56 (protein, UniProt O00567 1-594, looked up)
Nucleolar protein 56: MVLLHVLFEHAVGYALLALKEVEEISLLQPQVEESVLNLGKFHSIVRLVAFCPFASSQVALENANAVSEGVVHEDLRLLLETHLPSKKKKVLLGVGDPKIGAAIQEELGYNCQTGGVIAEILRGVRLHFHNLVKGLTDLSACKAQLGLGHSYSRAKVKFNVNRVDNMIIQSISLLDQLDKDINTFSMRVREWYGYHFPELVKIINDNATYCRLAQFIGNRRELNEDKLEKLEELTMDGAKAKAILDASRSSMGMDISAIDLINIESFSSRVVSLSEYRQSLHTYLRSKMSQVAPSLSALIGEAVGARLIAHAGSLTNLAKYPASTVQILGAEKALFRALKTRGNTPKYGLIFHSTFIGRAAAKNKGRISRYLANKCSIASRIDCFSEVPTSVFGEKLREQVEERLSFYETGEIPRKNLDVMKEAMVQAEEAAAEITRKLEKQEKKRLKKEKKRLAALALASSENSSSTPEECEEMSEKPKKKKKQKPQEVPQENGMEDPSISFSKPKKKKSFSKEELMSSDLEETAGSTSIPKRKKSTPKEETVNDPEEAGHRSGSKKKRKFSKEEPVSSGPEEAVGKSSSKKKKKFHKASQED
B7: SH3BP5L (protein, UniProt Q7L8J4 1-393, looked up)
SH3 domain-binding protein …: MAELRQVPGGRETPQGELRPEVVEDEVPRSPVAEEPGGGGSSSSEAKLSPREEEELDPRIQEELEHLNQASEEINQVELQLDEARTTYRRILQESARKLNTQGSHLGSCIEKARPYYEARRLAKEAQQETQKAALRYERAVSMHNAAREMVFVAEQGVMADKNRLDPTWQEMLNHATCKVNEAEEERLRGEREHQRVTRLCQQAEARVQALQKTLRRAIGKSRPYFELKAQFSQILEEHKAKVTELEQQVAQAKTRYSVALRNLEQISEQIHARRRGGLPPHPLGPRRSSPVGAEAGPEDMEDGDSGIEGAEGAGLEEGSSLGPGPAPDTDTLSLLSLRTVASDLQKCDSVEHLRGLSDHVSLDGQELGTRSGGRRGSDGGARGGRHQRSVSL
B8: CDR2L (protein, UniProt Q86X02 1-465, looked up)
Cerebellar …: MRRAAGMEDFSAEEEESWYDQQDLEQDLHLAAELGKTLLERNKELEGSLQQMYSTNEEQVQEIEYLTKQLDTLRHVNEQHAKVYEQLDLTARDLELTNHRLVLESKAAQQKIHGLTETIERLQAQVEELQAQVEQLRGLEQLRVLREKRERRRTIHTFPCLKELCTSPRCKDAFRLHSSSLELGPRPLEQENERLQTLVGALRSQVSQERQRKERAEREYTAVLQEYSELERQLCEMEACRLRVQELEAELLELQQMKQAKTYLLGPDDHLAEALLAPLTQAPEADDPQPGRGDDLGAQDGVSSPAASPGHVVRKSCSDTALNAIVAKDPASRHAGNLTLHANSVRKRGMSILREVDEQYHALLEKYEELLSKCRQHGAGVRHAGVQTSRPISRDSSWRDLRGGEEGQGEVKAGEKSLSQHVEAVDKRLEQSQPEYKALFKEIFSRIQKTKADINATKVKTHSSK
B9: KRT18 (protein, UniProt P05783 2-430, looked up)
Keratin, type I cytoskeletal …: SFTTRSTFSTNYRSLGSVQAPSYGARPVSSAASVYAGAGGSGSRISVSRSTSFRGGMGSGGLATGIAGGLAGMGGIQNEKETMQSLNDRLASYLDRVRSLETENRRLESKIREHLEKKGPQVRDWSHYFKIIEDLRAQIFANTVDNARIVLQIDNARLAADDFRVKYETELAMRQSVENDIHGLRKVIDDTNITRLQLETEIEALKEELLFMKKNHEEEVKGLQAQIASSGLTVEVDAPKSQDLAKIMADIRAQYDELARKNREELDKYWSQQIEESTTVVTTQSAEVGAAETTLTELRRTVQSLEIDLDSMRNLKASLENSLREVEARYALQMEQLNGILLHLESELAQTRAEGQRQAQEYEALLNIKVKLEAEIATYRRLLEDGEDFNLGDALDSSNSMQTIQKTTTRRIVDGKVVSETNDTKVLRH

One assay concerns GFP-14-3-3β and its binding proteins. Nature of the assay: GFP-14-3-3β co-IP with LC-MS/MS label-free quantification, untreated versus PP1c-treated. Further details: species or system human. Particulars: PP1 vs untreated; LFQ intensities, replicates 1-3.
As for B1, the “Difference (log2), PP1 vs untreated” value was -0.8196 log2.

Turning to B2, the “Difference (log2), PP1 vs untreated” value is recorded as -0.8522 log2.

B3: the “Difference (log2), PP1 vs untreated” value was -0.8415 log2.

For the molecule B4, the “Difference (log2), PP1 vs untreated” value is given as -0.8521 log2.

In the case of B5, the “Difference (log2), PP1 vs untreated” value is listed as -0.8796 log2.

B6: the “Difference (log2), PP1 vs untreated” value is recorded as -0.8589 log2.

On to B7, for which the “Difference (log2), PP1 vs untreated” value is -0.8873 log2.

With B8, the “Difference (log2), PP1 vs untreated” value is on record as -0.8285 log2.

The same assay, now with this note: log2 difference; pairwise comparison PP1 vs untreated, label-free quantification, 3 replicates each.
B9: the “Difference (log2), PP1 vs untreated” value is recorded as 1.649.

Another assay relates to GFP-14-3-3β. Nature of the assay: GFP-14-3-3β co-IP with LC-MS/MS, untreated GFP-14-3-3β versus GFP control (14-3-3 interactome). It is filed as binding, human. The note with it: log2 difference; pairwise comparison untreated vs GFP, label-free quantification, 3 replicates each.
As to B9, the “Difference (log2), untreated vs GFP” value is on record as -2.259.

The assay is the same for the next values; noted with them: untreated vs GFP; LFQ intensities, replicates 1-3.
With B1, the “Difference (log2), untreated vs GFP” value was -0.2089 log2.

As to B2, the “Difference (log2), untreated vs GFP” value was determined as 1.906 log2.

With B3, the “Difference (log2), untreated vs GFP” value is 2.416 log2.

Take B4: the “Difference (log2), untreated vs GFP” value was 2.872 log2.

Turning to B5, the “Difference (log2), untreated vs GFP” value is recorded as 7.762 log2.

For B6, the “Difference (log2), untreated vs GFP” value worked out at 2.987 log2.

As to B7, the “Difference (log2), untreated vs GFP” value was determined as 3.944 log2.

As for B8, the “Difference (log2), untreated vs GFP” value was determined as 4.028 log2.
